Experimental data from the DeepSol protein solubility set.

test: soluble on expression in E. coli; label from the status in PepcDB or PDB records

Row | Sequence | soluble on expression in E. coli
1 | MREIINKLNPIIIDKADKKFGVSRILKKYDGKPVYIKDVNGFEVVGNLCSRETLSKIFNVKKEDFIFFMLDAMEKEKEGKLKINNKLKEKYIVEIPENIKNWPIPIYYEKDAGAYITSGVVVVYDKDYGYNLSIHRILVKDDYLVIRMVEQRHLHFLYNKALKEKGYLDVAIVIGVHPAVLLAGSTSADITFDELKFAAALLGGEIGVFELDNGLLVPEAEFIIEGKILPEVDDEGPFVDITGTYDIVRKQPIIKIEKLYRKEKPIFHALLPGGIEHKTLMGMPQEPRILKGVRNTVPTVKNIVLTEGGCCWLHAVVQIEKRTEGDGKNAILAAFASHPSLKHVIVVDDDINIFDINDVEYAIATRVQGDKDIVIISGAKGSSLDPSSDLKNKLTAKVGVDATMSLIKGREHFERAKIPDKLEHHHHHH | soluble
2 | MAHHHHHHMVDRIEATLNRLIAFGPGTASYTDDAAFLQNVASAMEVAGEIPVLTEACMSLSVDLLENSSPQSAATHAVLTLLACCCMRDDNRELASRFGIFSLCVLLLRSSELLCKDTLLTIFDLIGTLCMSSASTRQMMRPCIPYVLGVMRTHPDCFQLCFSGAVVIGTLVMLDAANAELAAENDCVQILLTAFMRGHDKRKELLNRRRTSYSLRCQREEDESRRLCDNVIRWTEDALQKLVLAPSPVIDAKLEAADFGNYGDRVEVDELMWKLKFGRGKM | not soluble
3 | MSLDNNIKIIPFGGVRENGKNMYAVEIEDQIFILDTGLKYPENELMGIDVVIPDWEYLREHKDKIVGVFLTHGHADSIGALPYFLMDFNVPVFGSEMTIALAKLAVKNHKEVKKFNDFHVVDASTAIDFNDVTVSFFQTTHTIPETLGVVLETKAGNIVYTGDFKFDQTAKKGYQTDLARLAEIGSQGVLALLSDSAGAGITGASAREQDIGDYIKETFKYQNGRIIVASVASNIMRVQQIINAAVAVGRKIVLSGKDIEQIIDTAMSLGKLHLPDDLFISRKEAEKLEPNQVVILETGKMGEPIKSLQQIANGDNPNLQLTSTDLVFVTTTPSYAQETEVQKTKDMIYRTGAEVKFISDDLNPSGHANQNDEQLMLNFMKPKFFIPIQGEYRLLDRHAELAEEVGIPKENIFLVNKGDVLTYKNGKFHVGEHIDVSNTMIDGTGVGDIGNIVLRDRRVLSEDGIFVVVATIDRKKKKIVARPQITSRGFVFVKTNRQLMQQSADLVEKIVQENLDQKEFDWSHLKQDVRDKLNRFLFDQTKRHPVILPVIMEINQHQKKIKNEGHHHHHH | soluble
4 | MAHHHHHHMKEGDFEGAEERFIKAIEEIEKFPEGKVDPKLVEQMRELLEDAREMKDGRFKEIQEFIQEQFAVNETERLPTAHEFYGDVDEQQHPFVSRLPNDGECSALSMPQSNTNPVQWSEHSNSMSLSLFPSQVNGRSSEASNSQPVQHVVARRKPKPLQKQKALEVESSGNVSTGSDMKRFRAES | soluble
5 | EGYEQDFAVLTAEITSKIARVPRLPPDEKKQMVANVEKQLEEARELLEQMDLEVREIPPQSRGMYSNRMRSYKQEMGKLETDFKRSRIA | soluble
6 | SELPVRCRNISGTLYKNRLGSGGRGRCIKQGENWYSPTEFEAMAGRASSKDWKRSIRYAGRPLQCLIQDGILNP | soluble
7 | MAHHHHHHMLAGLLRGIRAATAPQRSRRRFLPRMRQRSSFSAVSSAAMFKNTLTTQRAQKGDYGFNVFHNSNPQHGGSYARHERRMREDEVEDFLKSVKHWRPLHEDVADGDLVDDAQSSSSTSAPAAGPPMPRLARMGEEAIMRTFQFETFREAYLFMGRVWAFCYGSDKYPHVTWEGTALTVYLYSSSFRGLSKREARVAAFLNDQYNMLRKSKWQQRRIVDGIVRQSAVEELLGEEVAAHLAHRETLRTAPLQEVQDGPRSWRSAIGSPLRSPNSGSDGAGSSMGVRES | not soluble
8 | MSLTTIPIWDVQQTPELNISAADYSLLTDLYQLTMAACYTGEGVEQRRASFELFVRRSPEGFGYLIAMGLAQALEYLEKLRFSPEQIAALQATGIFAHAGEGFWSLLAEGRFTGDVWAVPEGTAVFANEPLLRVEAPLWQAQLVETYLLNTLNYQTLVATRAARLRDIAGEQATLLEFGTRRAFSPQASLWAARAALAGGLDATSNVLAALQLGQQPSGTMAHALVMALSAMEGSEEQAFSAFHRYFPGAPLLIDTYDTIAAAQHLAEKVNTGKMELSGVRLDSGDLVSLSKQVRSLLPDVSIFASGDLDEWEIAKLQAAGAEIDGYGLGTKLVTGSPVNGVYKLVEIDDIPVMKKSSGKTTYPGRKQIFRSFGDGQVQADRLGLITDTPLITEKPLLELVVKEGQRLQPRETLSAIRQRTAASVASLPEQTRRLDNPVPVPIQISTALQDLTEVTLQRLNEGHHHHHH | not soluble
9 | MAHHHHHHMSGDLLEILGESRNWVLKRHRVLGKGGFGCATLYEEVHTPGSFVVVKDINMQIMKKEEEMKAVEMEVAILRRSCGHPNIVQFLDYYHDGQFMMYIVMEYCEGGDLARLEEQMQFRVFHQPERFVASILIQMLVGLYYLHVDQHTLHRDIKPQNVFLCSDGTIRIGDFGVSTVLNQYGCRAKAVCGSPFYMAPELCEEKAYDGKADLWSLGVMMYELMVLERPFNAKSIPALTRQIIHGEFSPIPRELHYSAQLVEMVESFLQTSPTARPTLRRVLRSSYVHSHLDCVPIVCLLSDHYARLFGEELLQQILQKHKDSTNTTSQVTTVVSRNSASVQEVERCKNHSDHSDSASAQPLAHQEISELEQWLEANGDVTDAFIDAQLPRNRADGQELSNSPSDIGRAVKTGRVFSDDIMDDSISSEQGKGQQAEDDVRDDFYEDDFESESSG | soluble
10 | MRFAVLGSGSQGNGTLIASGDTFILVDCGFSLRETERRLALLGVSAAQLSAVLVTHEHADHVHGVGLLSRRYNVPVYLSQGTLRGMRKPVEVAGFLACGQSLHIGSLEVTAARVEHDAYEPLQYVVSDGKRRFGMLTDLGSYDALLLERYQGLDALLIEANHCRDLLARGHYPAFLKQRVGGMQGHLNNHQAARLVHELGWNNLQHLVLAHLSSKNNLPHLARQCFVDTLGCDPDWLQVANQEHGLDWREIALEHHHHHH | soluble
11 | MTSLPPRNRSASLFEGSPFAPSSTTSPPTSSLAKMLKSEPIPCLRCGNVGSPTGSVPMSLHKVSSINRSAGTNPASRGGESSLELEAIAAVHELSFAVQSISVSEMLPRTPDLIFVNVTTLEAQPYCLELTLKGWRITSLRSDCMVGDFTRLELFTKYYDSLYLLMDDISPGYRERFSEKLVQRLKLIEAGEEDQVAPCASLQSPSLSTDSSSKESQYSSTESLPIVTPVSTPAIDPDFKPKFK | not soluble
12 | MGHHHHHHSHMLLTMPGGVAKAGYLHKKGGTQLQLLKWPLRFVIIHKRCVYYFKSSTSASPQGAFSLSGYNRVMRAAEETTSNNVFPFKIIHISKKHRTWFFSASSEEERKSWMALLRREIGHFHEKKDLP | soluble
13 | MNDYIVVKCGGSMLEQLNDVFFDCIKKLQQQYKVVIVHGGGPEIDAKLKDCNINVEKRDGLRVTPKEVMDVVQMVLCGSTNKKFVMNLQKHNLLAVGCSGCDGKLLQVQPVSEEIGYVGEVSYVETALLKGLINMNYIPVIAPIGIHDNEIYNINADTAAAGIAAALSAKELILITDVDGILHEGKLVKKTDESEIATLIEKGVITGGMIPKVQAALASLKMGVQKISIVNGTKDFTEDTGECIGMTVTRGVSIV | not soluble
14 | VNTFSVSRLALALAFGVTLTACSSTPPDQRPSDQTAPGTSSRPILSAKEAQNFDAQHYFASLTPGAAAWNPSPITLPAQPDFVVGPAGTQGVTHTTIQAAVDAAIIKRTNKRQYIAVMPGEYQGTVYVPAAPGGITLYGTGEKPIDVKIGLSLDGGMSPADWRHDVNPRGKYMPGKPAWYMYDSCQSKRSDSIGVLCSAVFWSQNNGLQLQNLTIENTLGDSVDAGNHPAVALRTDGDQVQINNVNILGRQNTFFVTNSGVQNRLETNRQPRTLVTNSYIEGDVDIVSGRGAVVFDNTEFRVVNSRTQQEAYVFAPATLSNIYYGFLAVNSRFNAFGDGVAQLGRSLDVDANTNGQVVIRDSAINEGFNTAKPWADAVISNRPFAGNTGSVDDNDEIQRNLNDTNYNRMWEYNNRGVGSKVVAEAKK | soluble
15 | MGHHHHHHGGHMSLSDDNSHSSDTISNKKGFFSLLLSQLFHGEPKNRDELLALIRDSGQNDLIDEDTRDMLEGVMDIADQRVRDIMIPRSQMITLKRNQTLDECLDVIIESAHSRFPVISEDKDHIEGILMAKDLLPFMRSDAEAFSMDKVLRQAVVVPESKRVDRMLKEFRSQRYHMAIVIDEFGGVSGLVTIEDILELIVGEIEDEYDEEDDIDFRQLSRHTWTVRALASIEDFNEAFGTHFSDEEVDTIGGLVMQAFGHLPARGETIDIDGYQFKVAMADSRRIIQVHVKIPDDSPQPKLDEEGGS | soluble
16 | MAYVESFYMDASLESDADVLPASESDMFEAQFIADVPLDGDAIIRIVDSQLAFEQRNHVVSDYCTMKAAELEKNPNQLTMNSSVMDNQQYFAPPKSESSQYAWNTNDVVSSHHQYAAQSPNIYTNDYHTSEPSDYAYI | not soluble
17 | MGSDKIHHHHHHMQTSHCLWQRKLVAFTSRSERMDENWKQQLATDSYGNPVRSISNLRLIFTLDENLSQIRYDTFCQDDVCFNPLFRNVNGNKIDEESVGKIQDYLERTYRLRLTQNKVFEILKTTSSERSFNPVQEFITQETWDGQPRIATAIIDYLGAEDMPLVREQTKLWFVAAVARVFSPGCKFDNVLTLPGPQGIGKSTFFKTISGKWFNDSFSFASGDKEKVETITNGWIIEISELNGLKRANDVEAAKAFLSRCSDYMRPAYGHKVVEFMRHNVFAATTNETNFLQGDNGNRRWWIIPVKGNGHVSDWLDCLQHSVPQLWAEAYTYYRQGMKLYLSPDMEIEANEIQMQHSNILVDPIMEDIEMYLEREVPVQYASWMIPTRLAYQKGAYSEPNSTMTSLNMVCARQIIEELPNDLVRRNTSKYTSQYINRLMSMIPNWKRSKQEKVKGLHPAYCDKTGRSKHPWVRVGTPSEEVCATLPSEPELPF | not soluble
18 | MGHHHHHHSHMPSLNLFPSVSDSGFWTGGTALRNPPSRPPYLSIAMTTLVSLATDLKYGSTLLGRIKTVLDASVAQLTVADVTTEDIVNFLNSLNGIDHELFSFIRTYPVFFVLHLCTLDRTQTYTSGQVIKTIKHLITTFREVLCEDMGADNDSIISNSNILKDCSWYLTKLETEQMSTSIPHLPKSCITFPCMEQVHHLVHNATLATLPNSWTSPLPSLNSVYVQWFVLSYKHKVFPDEVPSSNIQDLADKMTNIYKHLFVPHTSQLTGASIILARSLDILSQFTPLEKIPSNSPAVAFGDDELSNIPSNCHLMFGHLIESIYMGMTYACTLGAVEQFIREAFDVVLGVASEIKRTASLSDLPTVTKLVNIKRILIEHGLSETRCEEYAQALPKWQHREGIYPFEETLDHFHQKLSTLIKFCLEFYNTLMLVSPTSISHSYLKENNYLLQLDRKSAASQGQGPDDINLLEKVFTFVYPQVPGQDLQRIHDAIDSDIMRTLFFSWVNRNWGIVLITQNPLMEPSCEHQVSEERVAAYCKRMPVGDLSYEPAMVSHKMFYKYFIRHIVGPTIQGIFSRKTSRNRALFQIRWLLSFAITDTPQLQEIRRPLGMFYFELLDIINGTNKPSAMKNLLDHALDLKKKINKINQTFSIPQDLILYLFVLDTGASYINSVDYITAIIPKVEHLLLRGRNILRLGSILCHTKYNYHPLTHQFTILSSSGQILEVHLETLKSLISQVEKDHSQLLMEITDLEGELRGEYSTVLSLLQDLEAYKQHELGIEFDTEPWNQLKQSFSGILSRISSGLSLLSKGCSSCLRKRFHDLFSQEIITPTILKAASAGNVEIIKNLKEIPVNLMAPPTDTSMTQAGGNPTDEDLTMLYSTYPQIFSQNAARGEKHPPQLKKYSSTYDRIPLDVNWQIFTQQTYTAEHAECPYTIVKIHDIIKLLS | not soluble
19 | MRSFIISSALLVILVQCGYPVAENSYPTTPSYPTPPPSYPTPKKYPVAPTYPSPPAYAQKPSYSAPPPPAPSVYSSSSFSDNEVASDSEYTTASPNSEYRKRAKARTAHNRKFQRRALTPIRRFQQKKQ | not soluble
